From patent publication US20140322233A1 (Takeda / Millennium, published 2014)

Experiments:
[1] = target: T1, human GCC, full length with myc tag (293-GCC#2 cells) (human, UniProt P25092 24-1073); test: cell-based or functional assay
[2] = target: T1, human GCC, full length with myc tag …; test: indirect immunofluorescence flow cytometry, 293 GCC #2 cells;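 further: cells exposed to the test antibodies for 1 h on ice before flow cytometric readout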
mouse GCC = target: T2, mouse GCC (mouse, UniProt Q3UWA6 20-433, limits assumed); test: not described (FIG. 4: ELISA on GCC orthologs)
T2 construct: Construct used for the cross-reactivity test is not described
T2 sequence (looked up): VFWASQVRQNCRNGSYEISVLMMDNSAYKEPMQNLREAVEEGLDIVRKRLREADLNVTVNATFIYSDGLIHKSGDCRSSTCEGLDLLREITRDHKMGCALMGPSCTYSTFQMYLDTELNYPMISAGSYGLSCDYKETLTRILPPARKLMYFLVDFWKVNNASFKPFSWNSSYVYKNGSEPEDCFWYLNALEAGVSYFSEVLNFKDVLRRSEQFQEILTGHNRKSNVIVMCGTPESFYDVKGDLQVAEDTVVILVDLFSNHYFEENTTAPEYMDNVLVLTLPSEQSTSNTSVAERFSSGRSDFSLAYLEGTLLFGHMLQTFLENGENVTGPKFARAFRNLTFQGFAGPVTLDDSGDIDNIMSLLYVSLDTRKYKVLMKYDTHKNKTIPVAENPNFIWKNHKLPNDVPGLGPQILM

rat GCC = target: T3, rat GCC (rat, UniProt P23897 23-429, limits assumed); test: not described (FIG. 4: ELISA on GCC orthologs)
T3 construct: Construct used for the cross-reactivity test is not described
T3 sequence (looked up): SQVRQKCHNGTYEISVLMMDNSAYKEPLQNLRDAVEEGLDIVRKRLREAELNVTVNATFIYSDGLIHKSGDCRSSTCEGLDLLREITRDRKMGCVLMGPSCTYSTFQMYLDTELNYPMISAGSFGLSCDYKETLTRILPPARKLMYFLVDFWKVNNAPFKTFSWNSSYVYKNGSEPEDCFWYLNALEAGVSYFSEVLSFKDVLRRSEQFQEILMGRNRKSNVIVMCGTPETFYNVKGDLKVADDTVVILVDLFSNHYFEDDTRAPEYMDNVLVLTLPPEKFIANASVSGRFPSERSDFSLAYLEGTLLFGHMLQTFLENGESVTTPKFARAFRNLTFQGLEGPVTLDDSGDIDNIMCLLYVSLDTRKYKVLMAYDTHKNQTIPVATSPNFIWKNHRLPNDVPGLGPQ

[3] = target: T4, human guanylyl cyclase C (GCC), full length (human, UniProt P25092 24-1073); test: FACS with GCC-expressing cells (cell line not given); FACS EC50 on GCC-expressing cells
T4 construct: Full length GCC on transfected HT-29 (clones #2, #5, #18) and CT26 (#2.5, #32) cells and endogenous GCC on T84 cells; also called hGCC; STAR
T4 sequence (P25092 24-1073 limits assumed): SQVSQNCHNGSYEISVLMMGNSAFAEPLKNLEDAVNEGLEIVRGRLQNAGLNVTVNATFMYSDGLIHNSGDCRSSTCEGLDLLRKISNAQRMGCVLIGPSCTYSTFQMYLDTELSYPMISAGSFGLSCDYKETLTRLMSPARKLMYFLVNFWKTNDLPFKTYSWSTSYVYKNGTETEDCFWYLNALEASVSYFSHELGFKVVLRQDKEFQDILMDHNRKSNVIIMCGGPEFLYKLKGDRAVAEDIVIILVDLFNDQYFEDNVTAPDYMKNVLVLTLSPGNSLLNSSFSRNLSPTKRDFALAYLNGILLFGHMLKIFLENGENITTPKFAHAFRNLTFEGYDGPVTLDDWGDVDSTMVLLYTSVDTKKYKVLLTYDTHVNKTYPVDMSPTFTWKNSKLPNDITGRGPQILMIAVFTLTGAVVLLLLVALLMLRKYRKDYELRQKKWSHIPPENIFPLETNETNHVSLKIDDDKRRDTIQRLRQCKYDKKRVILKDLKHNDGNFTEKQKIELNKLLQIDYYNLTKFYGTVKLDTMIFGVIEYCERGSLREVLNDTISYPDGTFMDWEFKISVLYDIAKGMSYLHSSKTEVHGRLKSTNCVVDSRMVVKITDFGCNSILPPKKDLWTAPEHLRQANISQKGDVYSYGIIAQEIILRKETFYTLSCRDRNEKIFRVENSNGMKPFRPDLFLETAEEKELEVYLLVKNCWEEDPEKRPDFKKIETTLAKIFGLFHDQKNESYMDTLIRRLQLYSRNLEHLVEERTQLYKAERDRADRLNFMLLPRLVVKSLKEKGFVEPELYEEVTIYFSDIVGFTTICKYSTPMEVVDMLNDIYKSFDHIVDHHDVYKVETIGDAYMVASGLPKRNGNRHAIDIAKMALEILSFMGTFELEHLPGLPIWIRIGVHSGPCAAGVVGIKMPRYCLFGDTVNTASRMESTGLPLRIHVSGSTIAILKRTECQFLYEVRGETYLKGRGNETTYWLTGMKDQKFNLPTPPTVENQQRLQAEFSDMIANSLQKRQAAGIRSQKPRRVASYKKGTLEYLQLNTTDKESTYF

TOK107-hIg = target: T5, TOK107-hIg (human); test: ELISA against TOK107-hIg
T5 construct: Expressed in HEK293 cells; Fc mutated at the CH1 cysteine and at lysine 235 and glycine 237 to alanine; also called hGCC-ECD/hIgG1 Fc; TOK107-hIgG
T5 sequence (chain, as listed by the source limits assumed): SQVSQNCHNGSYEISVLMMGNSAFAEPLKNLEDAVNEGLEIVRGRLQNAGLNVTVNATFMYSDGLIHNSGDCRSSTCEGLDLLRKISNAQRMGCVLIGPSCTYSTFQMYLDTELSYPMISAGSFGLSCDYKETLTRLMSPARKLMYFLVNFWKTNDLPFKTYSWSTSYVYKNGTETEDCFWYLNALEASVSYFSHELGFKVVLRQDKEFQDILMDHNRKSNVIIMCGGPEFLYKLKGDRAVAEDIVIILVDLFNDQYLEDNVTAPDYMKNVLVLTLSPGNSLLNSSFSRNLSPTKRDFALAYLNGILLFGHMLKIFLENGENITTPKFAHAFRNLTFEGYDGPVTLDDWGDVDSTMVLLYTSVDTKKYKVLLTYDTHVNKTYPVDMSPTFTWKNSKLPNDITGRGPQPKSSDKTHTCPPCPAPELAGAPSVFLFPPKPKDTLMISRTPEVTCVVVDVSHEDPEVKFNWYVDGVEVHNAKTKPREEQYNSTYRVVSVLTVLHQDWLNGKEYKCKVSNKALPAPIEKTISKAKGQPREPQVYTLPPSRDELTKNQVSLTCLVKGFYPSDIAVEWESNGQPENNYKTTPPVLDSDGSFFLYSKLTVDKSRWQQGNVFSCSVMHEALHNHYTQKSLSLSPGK

T1 sequence (P25092 24-1073): as the sequence (P25092 24-1073 limits assumed) above

Binder | LD50, indirect cytotoxicity with DM1-conjugated mouse anti-human IgG, 293-GCC#2 cells, WST after 4 days [1] [pM] | MFI at 0.001 µg/ml [2] | MFI at 0.004 µg/ml [2] | MFI at 0.016 µg/ml [2] | MFI at 0.063 µg/ml [2] | MFI at 0.25 µg/ml [2] | MFI at 1 µg/ml [2] | binding result (mouse GCC) | binding result (rat GCC) | EC50 [3] [nM] | EC50 (TOK107-hIg) [nM]
mAb 5F9 (antibody, V domains shown, Human; hybridoma product is IgG2, kappa; also called 46.5F9.8.2; Prep A 5F9) VH: QVQLQQWGAGLLKPSETLSLTCAVFGGSFSGYYWSWIRQPPGKGLEWIGEINHRGNTNDNPSLKSRVTISVDTSKNQFALKLSSVTAADTAVYYCARERGYTYGNFDHWGQGTLVTVSS VL: EIVMTQSPATLSVSPGERATLSCRASQSVSRNLAWYQQKPGQAPRLLIYGASTRATGIPARFSGSGSGTEFTLTIGSLQSEDFAVYYCQQYKTWPRTFGQGTNVEIK | 26 | 500 | 937 | 2460 | 6620 | 7820 | 8030 | no binding | no binding |  | 
mAb 3G1 (antibody, IgG1, V domains shown) VH: QVQLKESGPGLVAPSQSLSITCTVSGFSLSRNAISWVRQPPGKGLEWLGVIWTGGGTNYNSALKSRLSIRKENSKSQVFLKMNSLQTEDTARYFCARSGYDGFDYWGQGTLVTVSA VL: QIVLTQSPAIMSASPGEKVTMTCSASSSVNYMHWYQQKSGTSPKRWIYDTSKLASGVPARFSGSGSGTSYSLTITSMEAEDAATYYCQQWSGNPYTFGGGTKLEIK |  |  |  |  |  |  |  |  |  | 0.58 | 22.8
